Assay results from the supplement of paper PMC6757056.
± gives the standard deviation of the averaged measurements.

B1: library; a variant is named by its letters at N, in order (parent)
chain: GCUGUCACCGAGAAACUGUGAAGUAUAUCUUAAACCUGGGCACUUAAAAGAUAUAUGGAGUUAGUAGUGCAACCUGCUCGGUCUGAUGAGUCCNNNNNNGGACGAAACAGC

Experiments:
cyclic di-GMP [1] = variants of: B1; assay: FACS-Seq fitted mean relative fluorescence mCherry/BFP without ligand (log10 relative fluorescence); HEK293T; ligand: cyclic di-GMP (c-di-GMP-II aptamer); higher = higher reporter protein expression; settings: ligand present: no
Procedure, shortened: (§1)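 Lentivirally transduced HEK293T libraries carried an mCherry reporter with the ribozyme switch and an EF1α-BFP marker. Transduced cells were enriched, then incubated with or without ligand for 48 h and sorted into 6 bins by mCherry/BFP. Genomic DNA from each bin was PCR-amplified, barcoded and sequenced on MiSeq. Fluorescence was the fitted normal mean of log10(mCherry/BFP) bin counts, scaled to five spiked-in control ribozymes.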

cyclic di-GMP [2] = variants of: B1; assay: normalized RNA/DNA level without ligand (relative to sTRSVctl = 100) (log10 (% of sTRSVctl)); HEK293T; ligand: cyclic di-GMP (c-di-GMP-II aptamer); higher = less ribozyme self-cleavage, higher mRNA level; settings: reporter: mCherry (pCS4076), ligand present: no
Procedure, shortened: (§2)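 Ribozyme switch library plasmids linked to reporters were introduced into HEK293T cells at 4 µg per 6-well well, with ligand, if any, added 1 h before. Total RNA was extracted with EDTA 72 h later, reverse-transcribed, amplified, barcoded and sequenced. RNA level was computed from RNA over DNA reads relative to a spiked-in non-cleaving sequence or the top sequences, then scaled and log-transformed. The top set was 25 sequences, values were ×100 and log10, and the cutoff was ≥100 DNA reads.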

cyclic di-GMP [3] = variants of: B1; assay: FACS-Seq fitted mean relative fluorescence mCherry/BFP with ligand (log10 relative fluorescence); HEK293T; ligand: cyclic di-GMP (c-di-GMP-II aptamer); ligand concentration (+) FACS-Seq: 1 mM; higher = higher reporter protein expression; settings: ligand present: yes
Procedure, shortened: as §1

cyclic di-GMP [4] = variants of: B1; assay: normalized RNA/DNA level with ligand (relative to sTRSVctl = 100) (log10 (% of sTRSVctl)); HEK293T; ligand: cyclic di-GMP (c-di-GMP-II aptamer); ligand concentration (+) RNA-Seq: 1 mM; higher = less ribozyme self-cleavage, higher mRNA level; settings: reporter: mCherry (pCS4076), ligand present: yes
Procedure, shortened: as §2

Row | Variant | FACS-Seq fitted mean (log10) (cyclic di-GMP [1]) | normalized RNA/DNA level without ligand (log10) (cyclic di-GMP [2]) | FACS-Seq fitted mean (log10) (cyclic di-GMP [3]) | normalized RNA/DNA level with ligand (log10) (cyclic di-GMP [4])
1 | AGCAGA | -0.373 ± 0.045 | 1.564 ± 0.0029 | -0.1 ± 0.017 | 1.69 ± 0.19
2 | AGCAGC | -0.317 ± 0.18 | 1.72 ± 0.048 | -0.109 ± 0.057 | 1.86 ± 0.069
3 | UCUGUA | -0.293 ± 0.01 | 1.57 ± 0.089 | 0.0285 ± 0.0098 | 1.77 ± 0.041
4 | AGCGAA | -0.109 ± 0.022 | 1.41 ± 0.069 | 0.163 ± 0.081 | 1.61 ± 0.15
5 | ACUGUA | -0.443 ± 0.033 | 1.51 ± 0.076 | -0.138 ± 0.021 | 1.76 ± 0.094
6 | AGGACA | -0.264 ± 0.0046 | 1.48 ± 0.11 | -0.014 ± 0.086 | 1.63 ± 0.12
7 | AGCUUG | -0.0154 ± 0.14 | 1.59 ± 0.041 | 0.223 ± 0.0032 | 1.81 ± 0.14
8 | CGAAUU | -0.504 ± 0.036 | 1.38 ± 0.11 | -0.238 ± 0.016 | 1.57 ± 0.088
9 | CGAAUA | -0.507 ± 0.0079 | 1.24 ± 0.091 | -0.209 ± 0.083 | 1.45 ± 0.086
10 | GGAGGC | 0.132 ± 0.076 | 1.6 ± 0.065 | 0.234 ± 0.067 | 1.79 ± 0.072
11 | UGAUAU | -0.406 ± 0.087 | 1.649 ± 0.0089 | -0.0482 ± 0.1 | 1.82 ± 0.08
12 | UGAUAC | -0.0926 ± 0.067 | 1.69 ± 0.02 | 0.197 ± 0.054 | 1.8 ± 0.12
13 | UGAUAG | -0.125 ± 0.093 | 1.696 ± 0.015 | 0.191 ± 0.081 | 1.83 ± 0.12
14 | CGAGAA | 0.00961 ± 0.085 | 1.35 ± 0.15 | 0.126 ± 0.031 | 1.55 ± 0.037
15 | CGAGAU | -0.412 ± 0.057 | 1.52 ± 0.064 | -0.0533 ± 0.042 | 1.76 ± 0.11
16 | AGCGGU | -0.189 ± 0.03 | 1.64 ± 0.024 | 0.149 ± 0.093 | 1.8 ± 0.1
17 | UGAAAU | -0.0172 ± 0.1 | 1.66 ± 0.043 | 0.368 ± 0.014 | 1.84 ± 0.14
